The results in this text go back to the nanobody polyreactivity screen of Harvey et al. (2022).

The series can be described thus: yeast display, Sf9 membrane polyspecificity reagent, FACS + sequencing; frameworks hold sequencing errors. Summed up: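 A nanobody's polyreactivity label depends on the gate it was sorted from. Yeast display cells were stained with 10% biotinylated, detergent-solubilized Sf9 membrane reagent for 1 hour at 4 °C, enriched on streptavidin microbeads and sorted by FACS. The low and high (top ~1%) gates were set on anti-HA fluorescence for expression and streptavidin fluorescence for reagent binding.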
As to “HVQLVESGGGLVQAGGSLRLSCAASGFTFGYYAMGWYRQAPGKERELVAAISSSGGSTYYADSVKGRFTISRDNAKNTVYLQMNSLKPEDTAVYFCAVVVFSRVYRYFTSDYWGQGTQVTVSS”, the “polyreactivity (PSR sort gate)” value was “high polyreactivity”.
Regarding “HVQLVESGGGLVQAGGSLRLSCAASGIIFGAYALGWYRQAPGKERELVAAITYSSGSTYYADSVKGRFTISRDNAKNTVYLQMNSLKPEDTAVYYCAKTNFSQSSRYNYDYWGQGTQVTVSS”, the “polyreactivity (PSR sort gate)” value is listed as “low polyreactivity”.
As for “HVQLVESGGGLVQAGGSLRLSCAASGRIFGYNAMGWYRQAPGKEREFVATITYNDGSTYYADSVKGRFTMSRDNAKNTVYLQMNSLKPEDTAVYYCAADLIWTVYGWKYDYWGQGTHVTVSS”, the entry is “low polyreactivity”; as for “HVQLVESGGGLVQAGGSLRLSCAASGRIFRINVMGWCRQAPGKERELVAAISGRGGSTYYADSVKGRFTISRDNAQNTDYLQMNRLKPEDTAVYYFAARSPYRYYYWGQGTQVTVSS”, “high polyreactivity”; as for “HVQLVESGGGLVQAGGSLRLSCAASGRILSRNAMGRYRPAPGKERELVAAISISGGSTYYADSVKGRFTISRDNAKNTVYLQRNSLKPEDTAVYYCNTAYYGYRKYDYWGQGTQVTVSS”, “high polyreactivity”.
Consider “HVQLVESGGGLVQAGGSLRLSCAASGRTFLGNAMGWYRQAPGKERQLVAVITGSGARTYYADSEKGRFTISRDNAKNTVYLQMNSLKPEDTAVYYCAAAGFSGQYRSYYWGQGTQVTVSS”, for which the “polyreactivity (PSR sort gate)” value is given as “high polyreactivity”.
Under “HVQLVESGGGLVQAGGSLRLSCAASGSIFSENTMGWYRQAPGKEWELVAAISWSGGSTNYADSVKGRFTISRDNAKNTVYLQMNSLKPEDTAVYYCAKDVGSADPTYYYWGQGTQVTVSS” stands “low polyreactivity”; under “HVQLVESGGGLVQAGGSLRLSCAASGSTFFKYGMGWNRQAPGKERELVASITSRTGSTYYADSVKGRFTISRDNAKNTVYLQMKSLKPEDTAVYYCNVRRGGGYRYGARTFIYGHWGEGTQVTVSS”, “high polyreactivity”.
Under “HVQLVESGGGLVQAGGSLRLSCAASGSTFGQYTMGWYRQAPGKERELVATISSGGSTYYADSVKGRFTISRDNAKHTVYLQMNSLKPEDTAVYYCAARYWSIYDYWGQGTQVTVSS” stands “low polyreactivity”.
As for “HVQLVESGGGLVQAGGSLRLSCAASGSTFNINAMVWYRQAPGKERELFAAISWSGDITYYADSVKGRFTISRDNAKNTVYLLMISLKPEDTAVYYCNTDDPGNYWYAEYDYWGQGTQVTVSS”, the entry is “low polyreactivity”.
As for “HVQLVESGGGLVQAGGSLRLSCAASGSTFNRYAMGWYRQAPGKERELVAAITERGGSTYYADSVKGRFTISRDNAKNTVYLQMNRLIPEDTAVYYCAARSKYYRSTPFVSDYWGQGTQVTVSS”, the “polyreactivity (PSR sort gate)” value is listed as “high polyreactivity”.
With “HVQLVESGGGLVQAGGSLRLSCAASGSTFSRYAMGWYRQAPGKERELVAAISSSGGSTYYADSVKGRFTISRDNAKNTVYLQMNSLKPEDTAVYYCAARQYFFSSWRFDYWGQGTQVTVSS”, the “polyreactivity (PSR sort gate)” value is “high polyreactivity”.
As for “HVQLVESGGGLVQAGGSLRLSCAASGSTLWYNAMGWNRQAPGKERELVAVITWTGGSTYYADSVKGRFTISRDNAKNTVYLQMNSLKPEDTAVYYCAVRWYFGNRYKYYYWGQGTQVTVSS”, the “polyreactivity (PSR sort gate)” value was “high polyreactivity”.
As to “HVQLVESGGGLVQAGGSLRLSCAAWSIFYLNAMGWYRQAPGKERELVAAISSAGSTYYADSVKGRFTISRDNAKNTVYLQMNSLKPEDTAVYYCAAYWYDSPGVTEIWYDYWGQGTQVTVSS”, the “polyreactivity (PSR sort gate)” value was “low polyreactivity”.
Consider “HVQLVESGGGLVQAGGSLRVSCAASGSTFTRNAMGWYRQAPGKERELVAAITLRGGRTYYADSVKGRFTISRDNAKNTVYLQMNSLKPEDTAVYYCAAKPYTAYSYYEQRGRKYDYWGQGTQVTVSS”, for which the “polyreactivity (PSR sort gate)” value is given as “low polyreactivity”.
Under “HVQLVESGGGLVQAGVSLRLSCAASGRLLEGYAMGWYRQAPGKERELVAAISFSTTTTYYADSVKGRFTISRDNAKNTVYLQMNSLKPEDTAVYYCAADSQQSDYDYWGQGTQVTVSS” stands “high polyreactivity”.
As for “HVQLVESGGGVVQAGGSLRLSCAASGIIFYYYTMGWYRHAPGKQRELVAAISTSGGRTYYADSVKGRFTISRDTAKNTVYLQMNSLKPEDTAVYYCNARSRHTTLDYWGQGTQVTVSS”, the “polyreactivity (PSR sort gate)” value was “high polyreactivity”.
For “HVQRVDSGAGLVQPRCSLRISCAASGNTFKQYAMGWYRQAPGKDRELVAAIRRSGSTYYADSVKGRFTISRDNAKYTVYLEMNSLKPEDPAVYYCNARIYRLYSTYSWTRYDYWGQGTQVTVSS”, the “polyreactivity (PSR sort gate)” value is on record as “high polyreactivity”.
As to “HVQRVESGGGLVQAGGSLRLSCAASGLIFVRYAMGWYRQAPGKERELVAAITTGGRTYYADSVKGRFTISRDNAKNTVYLQMNSLKPEDTAVYDCAASRSTYRASRPGTTFNYWGQGTQVTVSS”, the “polyreactivity (PSR sort gate)” value is listed as “high polyreactivity”.
For the sequence “HVQVVESGGGLVQAGGSLRLSCAASGSTFPANAMGWYRQAPGKERELVAAISSSGGRTYYADSVKGRFTISRDNAQKTVYLQMNSLKPEDTAVYYCAAYGGGGYKYDYWGQGTQVSVSS”, the “polyreactivity (PSR sort gate)” value was “low polyreactivity”.
As for “HVRLQESVGGLVQAGGSLRQSCAASGAISPYYDMGWYRLAPGKEREFVASIAHGGTTYYADSVKGRFTTSRDNAKNTVYLQMNSLKPEDTAVYYCAVAYDVWHSHIYRGQGTQVTVSS”, the entry is “high polyreactivity”; as for “IIQAGGSLRLSCAASGRTLSGYAMGWYRQAPGKERELIADITSGGSTYYADSVKGRFTISRDNAKNTVYLQMNSLKPEDTAVYYCAAERQIRSFWSSRTYEFGYWGQGTQVTVSS”, “low polyreactivity”.
Consider “KDQLVESGGGLVQAGGSLRLSCAASGLTFGGNAMGWYRQAPGKERELVAGISSSGNTNDADSVKGRFTISRDNAKNTVYLQLNSLKPEDTAVYYCAADENITYPVYDLYYWGQGTQVTVSS”, for which the “polyreactivity (PSR sort gate)” value is “low polyreactivity”.
“KDQLVESGVGLVQAGCSLRLSCAASGRTLRRNAMGWYRQAPRKERELVAAISTGGGSTYYADSVKGRFTISRDNAKNTVYLQMNSLKPVDTAVYYCAAVYSQSTKRYELYYWGQGTQVTVSS”: the “polyreactivity (PSR sort gate)” value is recorded as “high polyreactivity”.
“KFQLVESGGGLVQAGGRLRLSCAASGSTFWDYAMGWYRQATGKERQLVAVITSSGGGTYYADSVKGRFTISRDNSKNTVYLLMNSLKPEDTAVYYCAKKRPYSNGGYYWGQGSQVTVSS”: the “polyreactivity (PSR sort gate)” value is recorded as “high polyreactivity”.
Under “KGHLEESGGGLVQAGGRLRLSCPASGNTFGDYAMGRYRQAPGKERELVAAISRSGGSTSYADSVKGRFTISRDNAKNTFYLQMNSLKPVDTAVYYCAAYWQRFGYDYWGQGTQVTVSS” stands “low polyreactivity”; under “KGQHVESGGGLVQAGGRLRLSCAASGSIFRYNAMGWDRQAPGKEREFVAAISWSGGRTFYADSVKGRFTISRDNAKNTVYLQMNSLKPEDTAVYYCAARSSRTTRQGYDYWGHGTQVTVSS”, “high polyreactivity”.
For the sequence “KSGGGLVQAGGSLRLSCAASGRIYVEYAMAWYKQAPGKERELVASISWSGDSTYYAESVKGRFTISRDNAKNTVYSQKKSLKPEATAVYYCNADGQVGYAVSYDYWGQGTQVTVSS”, the “polyreactivity (PSR sort gate)” value is recorded as “low polyreactivity”.
Under “KVKLVESGGGLVQAGGSLRLSCAASGITSWYYAMGWYRQAPGKERELVAAITSDGSTYYADSVKGRFTISRDNAKNTVYLQMNSLKPEVTAVYYCAAERDYWIPDSYLVGMDFWGLGTQVTVSS” stands “low polyreactivity”; under “KVQLQESGGGLVQAGGSLRLSCAASCTISQEDWMGWYRQAPGKEREFVAAIGLGSNTNYADSLKGRFPISRDNAKNTVYLQMNSLKPEDTAVYYCAVSVWQYSDHVYRGQGTQVTVSS”, “low polyreactivity”.
In the case of “KVQLVDSGGGLVQAGGSLRLSCAASGSTSKCYAMGWYRPEPGKERELVAAITKTGGRTYYADSVKGRFTISRDNAKNTVYLQMNSLKPEDTADYYCAVEYLRGFIVIYDYWGQGTQVTVTS”, the “polyreactivity (PSR sort gate)” value is recorded as “high polyreactivity”.
As for “KVQLVESAVGLVQAGGSLRLSCAASGPTFWRNAMGWYRQAPGKERELVAAISRGGSTNYADSVKGRFTISRDNAKNTVYLLMNSLKPEDTAVYYCAARYYYRYNYWGQGTQVTVSS”, the entry is “high polyreactivity”.
In the case of “KVQLVESGGCLVQAGGSLSLSCAASGSIFAVYAMGWYRQAPGKERELVAAITLSGGSTYAYSVKGRFTISRDNAKNTFYLQMKSLKPEDTAVYYCNAVSANYDYVDYEYWGQGTQVNVSS”, the “polyreactivity (PSR sort gate)” value is “low polyreactivity”.
As for “KVQLVESGGGLVQAGGSIRLSFAASGLIFLQYCMGWYRQAPGKERELVAAITTRGGRTYYADSVKGRFTISRDNPKNTVYLQMNSLKPEDTAVYYCAADSEQDNLRYYRWVWYYYWGQGPQVTVSS”, the entry is “low polyreactivity”; as for “KVQLVESGGGLVQAGGSLRLSCAASGGTFSYNAMGWYRQAPGKERELVAAISWSGTRTYYADSVKGRFTISRDNAKNTVYLQMNSLKPEDTAVYYCNKPPPNRGRYDYWGQCTQVTVSS”, “low polyreactivity”; as for “KVQLVESGGGLVQAGGSLRLSCAASGLNFGRYAMGWYRQAPGKERELVAAISSSGVRTYYADSVKGRFTISRHNAKNTVYLQMNSLKPADTAVYYCAAAYWSSREDTVIKRYYWGQGTQVTVSS”, “high polyreactivity”.
As for “KVQLVESGGGLVQAGGSLRLSCAASGNTFYVYTMGWYRQAPGKERDLVAAISSTGDRTYYADSVKGRFTISRDNAKNTVYLQMNSLKPEDTSVYYCADVRYITKEFYWGLGTQVTVSS”, the “polyreactivity (PSR sort gate)” value is “high polyreactivity”.
Under “KVQLVESGGGLVQAGGSLRLSCAASGRIFKYYAMGWYRQAPGKERELVAAISARGGSTYYADSVKGRFTISRDNAKNTVYLQMNSLKPEDTAVYYCAAPYLTTQYERMYYWGQGTQVTVSS” stands “high polyreactivity”; under “KVQLVESGGGLVQAGGSLRLSCAASGSIISPNAMGWYRQAPGKERELVAGITQSGGSTYYADSVKGRFTISRDNAKNTVYLQMNSLKPEDTAVYYCSVDFILGWYSYYYWGQGTQVTVSS”, “high polyreactivity”.
Under “KVQLVESGGGLVQAGGSLRLSCAASGSTFSTNAMGRYRQAPGKERELVAAISRTGGSTYYADSVKGRFTISRDNAKNNVYLPMNILKPEDTAVYYSARYSYRGTNVRFDYWGQGTQVTLSS” stands “high polyreactivity”.
Regarding “KVQLVESGGGLVQAGGSLRLSCAASGSTFSYYAMGWYRQGPGKERELVAAITRSGYSTYYADSVKGRFTISLDNAKNTVYLQMNSLKPEDTAVYYCNTVSRYKYPKPTYYQSSFYYWGQGTQVTVSS”, the “polyreactivity (PSR sort gate)” value is recorded as “high polyreactivity”.
